Measured values: the supplement of paper PMC9170038

System: MS2 coat protein
Experiment: apparent KD of MS2 coat protein; higher = weaker reporter binding
Conditions: Eterna round: R107
Procedure: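 RNA-MaP round R107: designed RNA switches with theophylline, tryptophan, arginine or FMN aptamers are transcribed on-chip within common flanks. They are titrated with SNAP-549-labelled MS2 coat protein in RNA-MaP buffer (100 mM Tris pH 7.5, 80 mM KCl, 4 mM MgCl2), without ligand or with the indicated ligand. Median apparent KD per design.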

[1] = input ligand: theophylline 20 uM
[2] = input ligand: theophylline 2 mM
[3] = input ligand: tryptophan 2.4 mM

| Sequence | apparent KD of MS2 coat protein (input ligand: arginine 13.2 mM) [nM] | apparent KD of MS2 coat protein (input ligand: none) [nM] | apparent KD of MS2 coat protein [1] [nM] | apparent KD of MS2 coat protein [2] [nM] | apparent KD of MS2 coat protein [3] [nM] |
| --- | --- | --- | --- | --- | --- |
| ACGGAGAUUGCUAAAUGUUGGCGAGCGGAUACCAGCCUAUAAUCGGGCCCUUGGCAGCCGACAUGAGGAUCACCCAUGUAAACAA [Gelelaor] | 12.3 | 121 | 98.9 | 87.3 | 58.6 |
| ACGUAAAGCAGAAGGAGCGUCUUCAAAUUACAUGAGGAUCACCCAUGUUUUGUGAUCAUAUGACAGGUAGGUCGCUGAAGUACGA [JR_SSArginiB_Sub003] | 58.3 | 71.7 | 97.5 | 86.4 | 66.5 |
| ACGUAAUGCAGAAGGAGCGUCUUUUUAAAACAUGAGGAUCACCCAUGUAAUAUUUAUGGGAGACAGGUAGGUCGCUGAAGUACGA [JR_SSArginiB_Sub006] | 30.3 | 23.5 | 32.3 | 22.3 | 25.3 |
| ACGUUGUAGUCGGCCGCCACUGUUUUCAUGUUCAACAUGAGGAUCACCCAUGUACCUUUUUUUAUCAGGACCGGGACGUAUUCGA [JR_SSTryptoB_Sub003] | 46.5 |  | 102 | 96.8 |  |
| ACUAGAGGUGGAAGGAGCGGGAGACAUGAGGAUCACAUGAGGAUCACCCAUGUAGGAUCAUCCCAGGUAGGUCGCCAUGUCGAAA [,mmlmullin] | 46 | 979 | 255 | 456 | 293 |
| ACUCGACCAUCAGCCAUUUGUGAAUCACGGCGAGGACCGGUACGGCCGCCACUCGACAUGAGGAUCACCCAUGUAAGACCGGUGU [vmullin3] | 24 |  | 37.8 | 39.6 |  |
| ACUCGGUGUUUGUUGCUCCGAGUGUAUGAUACCAGUUAGUUUUAUGGCCCUUGGCAGCAUAGGACAUGAGGAUCACCCAUGUGUU [#02 SameState-TheophyllineA] | 27.3 |  | 41.1 |  | 34.9 |
| ACUCGGUGUUUGUUGCUCCGAGUUUAUGAUACCAGUUAGUUUUAUGGCCCUUGGCAGCAUAGGACAUGAGGAUCACCCAUGUGUU [#03 SameState-TheophyllineA] | 26.2 |  | 38.6 |  | 32.2 |
| ACUUUGUCGGGUGAUACCAGCCUCGGCACAUCUCGUGCCGAACAUGAGGAUCACCCAUGUGGCCCUUGGCAGCACAUGACAAAUC [Isredior] | 70.1 |  | 522 |  | 423 |
| AGAAGUCCAGACUACACGUGGAAAAGCGAUACCAGACUCAUAGGUGUCCCUUGGCAGCGCGUAACAUGAGGAUCACCCAUGUGAU [theeternabot_exclusion_MS2_Theo_A_9] | 66.8 |  | 190 |  | 133 |
| AGACAUGAGGAUCACCCAUGUAGUACGGAUACCAGAUCCAGAUGCGUCCCUUGGCAGCUGUAGUACAGCGUUACGUCGCUCAUAG [Exclusion - Theophylline A (Freestyle 26)] | 20.3 |  | 48.1 |  | 28.4 |
| AGACAUGAGGAUCACCCAUGUAGUACGGAUACCAGAUCCAGAUGUAUCCCUUGGCAGCUGUGGUACAGCGUUACAUCGCUCCUAG [Exclusion - Theophylline A (Freestyle 20)] | 15.9 |  | 24.4 |  | 15.8 |
| AGACAUGAGGAUCACCCAUGUAGUAUGGAUACCAGAUCCAGAUUUAUCCCUUGGCAGCUGUGGUACAGCGUUGCAACGCUCCUAG [Exclusion - Theophylline A (Freestyle 14)] | 30.4 |  | 38.7 |  | 31.8 |
| AGAGAGGCGCAUGAUACCAGCUUGGCCUAACAUGAGGAUCACCCAUGUCAAUGGGCCUUAAGCCCUUGGCAGCAUAGGGUGUCCU [Xeestixexe] | 72.7 | 72.1 | 186 | 25.9 | 85.9 |
| AGAGAUGAACAUGAGGAUCACCCAUGUAAACGAGGACCGGUACGGCCGCCACUCGUGGGUGUAAUAGAAUAAUAAGAGAAUAAUA [Turkey 1] | 24.4 | 63.2 | 92 | 59.6 | 75.5 |
| AGAGUCAGACAAAAGUCUGGCUCAGCCGAAGGAGCGUCCGAAAGGACAGGUAGGUCGCGGUUACCUGAGGAUCACCCAGGUUCCU [ArgAS 24 #OpenEnded #AlternativeMS2] | 53.8 | 139 | 86.9 | 115 | 91.5 |
| AGAGUCUAGUCGGCCGCCACUCAUGUCCAAUGGACAUGAGGAUCACCCAUGUACCGAAGGUACAUGAGGACCGGGACUGGACUCA [Omei Tryp B SS C v6] | 43.6 |  | 496 | 330 |  |

| Sequence | apparent KD of MS2 coat protein (input ligand: arginine 13.2 mM) [nM] | apparent KD of MS2 coat protein (input ligand: none) [nM] | apparent KD of MS2 coat protein [1] [nM] | apparent KD of MS2 coat protein [2] [nM] | apparent KD of MS2 coat protein [3] [nM] |
| --- | --- | --- | --- | --- | --- |
| AGAGUUAGACAAAAGUCUAGCUCACCAGAAGGAGCGUCCGAAAGGACAGGUAGGUCGCUGGUGCACGAGGAUCACCCGUGUUCCU [ArgAS 21 #OpenEnded #AlternativeMS2] | 57.9 | 80.6 | 90.2 | 118 | 67.3 |
| AGAUCUUUCGAAAGAAGGAUCUUGUCUGAUACCAGAGACGAAAGUCUCCCUUGGCAGCAGUGCCAACAUGAGGAUCACCCAUGUA [Theophylline A 12] | 22 |  | 24.7 |  | 21.3 |
| AGAUUCGACACGGCCGCCACUCGUGACAGAUUUCGCAGUGGUCAACAUGAGGAUCACCCAUGUCUGAGGACCGGGUGUUGAGUCU [XTryp B #9] | 36.4 |  | 39.3 | 41.1 |  |
| AGAUUCGACACGGCCGCCACUCUACACGGAUUUCCGAGUGUCGAACAUGAGGAUCACCCAUGUGGGAGGACCGGGUGUUGAGUCU [XTryp B #11] | 164 |  | 704 | 944 |  |
| AGAUUCGACACGGCCGCCACUUGUGGUGGAGGGUCUUUAGUCACACAUGAGGAUCACCCAUGUACAAGGACCGGGUGUUGAGUCU [XTryp B #23] | 19.1 | 19.3 | 14.2 | 25.4 | 36.3 |
| AGAUUCGACACGGCCGCCACUUUCAGUGGCUGGUCACAUGGUGCACAUGAGGAUCACCCAUGUGGAAGGACCGGGUGUUGAGUCU [XTryp B #25] | 23 |  | 45.2 | 38.3 |  |
| AGCAAGCAACAUGAGGAUCACCCAUGUGAAGGAGCGCCGAAUAAGGCAGGUAGGUCGCACAUGAAUAAAUCAUGUAAAAGCUUGC [MAT - Exclusion Arginine A - Mod of Eli - D23] | 104 | 185 | 164 | 68.1 | 138 |
| AGCACUGUGACGGCCGCCACUACAUAAAUUGGGUGGUCAGGUUCAUUACAUGAGGAUCACCCAUGUAGGACCGGGUCUCAGUGCA [Omei Trp Exc B A v8] | 15.9 | 11.4 | 20.6 | 13.3 | 7.33 |
| AGCAGUACAACAGAUACCAGACUUUUAAUGCCUCUAAUUACAUGAGGAUCACCCAUGUUUGUCCCUUGGCAGCUGUUGUACUGCA [JR_ExcTheophyB_Sub010] | 72.4 |  | 200 |  | 124 |
| AGCCACUCGAGUGAUCCUCACGAGUGGCUACGAGGACCGGUACGGCCGCCACUCGAAUUAACAUGAGGAUCACCCAUGUAAUCUC [Brourdmod06] | 38.7 |  | 238 | 344 |  |
| AGCCAUGGAAACAUGGCGGCGGCUUGAGCGCGAGGACCGGUACGGCCGCCACUCGGGCAACAUGAGGAUCACCCAUGUUCCUCAU [ETA NP+V+V2 #19] | 64 | 113 | 104 | 75.7 | 190 |
| AGCGAUAUGCAUGAUACCAGCUACAUGAGGAUCACCCAUGUGCGUCAGAAAUGACUGUGUAGCCCUUGGCAGCAUAAAGCAUGUA [Exclusion - Theophylline B (Freestyle 10)] | 32.3 |  | 50.7 |  | 38.5 |
| AGCGAUAUGCAUGAUACCAGCUACAUGAGGAUCACCCAUGUGCGUCAGUAAUGACUGUGUAGCCCUUGGCAGCAUAGAGCAUGUA [Exclusion - Theophylline B (Freestyle 12)] | 29.5 |  | 47.2 |  | 34.7 |
| AGCGUUCGGUUUAUGCCGGACAAUGGGUGACGAGGACCGGUACGGCCGCCACUCGGGCGCCCGGUUACAUGAGGAUCACCCAUGU [Oresrile] | 74.3 |  | 190 | 200 |  |
| AGCUCAUAGAGUGAUACCAGACUACAUGAGGAUCACCCAUGUUUCUUUUGGUUAUCAUGUGUCCCUUGGCAGCACAAGAAGAGCA [JR_ExcTheophyB_Sub015] | 13.4 |  | 20.2 |  | 12.7 |
| AGCUCGCAUCCUCUAGCGUCAAAGACGCGUCGAGGACCGGUACGGCCGCCACUCGACUUGAGGAUCACCCAGGUCAAAGCGAGCA [TrypAX 13 #SwitchBubble #AlternativeMS2 #MS2Late #CuTurnoff] | 148 | 545 | 488 | 631 | 138 |
